Assay results as given in the supplement of paper PMC9170038.

system: MS2 coat protein; test: apparent KD of MS2 coat protein; higher = weaker reporter binding; conditions: Eterna round: R107; input ligand: arginine 13.2 mM
How it was run: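 Designed RNA switches, transcribed on-chip from Illumina sequencing clusters, were titrated with SNAP-549-labelled MS2 coat protein from 0.7 or 1.5 nM to 3 µM in twofold steps. The solution was 100 mM Tris-HCl pH 7.5, 80 mM KCl, 4 mM MgCl2, with constant ligand or without it. Apparent KD is the median over each design's normalised cluster binding-curve fits.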

| Sequence | apparent KD of MS2 coat protein [nM] |
| --- | --- |
| AAGAGACAUGAGGAUCACCCAUGUGUUGAUACCAGAAACACAAAGUUCCCUUGGCAGCAAAUCUGAGCGAAACGAUCUAGAGCGC [theeternabot_sameState_MS2_Theo_A_30] | 43.3 |
| UUGGGUAUGCGAAGGAGCGGGAAAUAUAUAUAUAUAAUCCUAACAUGAGGAUCACCCAUGUCCCAGGUAGGUCGCGCAUAUUUGG [12.J] | 40.6 |
| UGGGUACAUGAGGAUCACCCAUGUACUGAAGGAGCGAGAAAUAUCUCAGGUAGGUCGCAGACAUGAGGAUCACCCAUGUAGUAGG [Exclusion Arginine A GF 11] | 29.5 |
| AGAAUAUAGUCGGCCGCCACUCUUCAUACAUGAGGAUCACCCAUGUUUAAUUCUUGGAUAUUCUUGAGGACCGGGACAUAGGCAU [JR_SSTryptoB_Sub019] | 18 |
| AAAAUAUAGACGGCCGCCACUAUAAUCAUGAGGAACAUGAGGAUCACCCAUGUAUGAGGAUCACCUAGGACCGGGUCAUAUAAAA [#24 Exclusion Tryptophan B] | 14.2 |
| UUUACAUGAGGAUCACCCAUGUUCCAUGAUACCAGACAUGAAAAUGUCCCUUGGCAGCAUGAAUGAUUCAUAGGAUAAUUAUGGG [Medlanky] | 79.7 |
| UGUUUGGUGCGCGAGUGUUGGAUAAUUGAUACCAGUGUAGAAGAGCGCCCUUGGCAGCGAAUCCUAACAUGAGGAUCACCCAUGU [5.W] | 37.6 |
| GGGUACAUCGCGGCCGCCACUCAUGUAAAUGCAUGAGGAUCACCCAUGCCGAUGGAGACAUCGGAGAGGACCGGGUGAUGUACCG | 41.8 |
| ACACAUGAGGAUCACCCAUGUUCAAUAGAUACCAGUGAUACGGUGCACCCUUGGCAGCUGUUGCUGAGUGAUGGUUCCCUCGGAA [#22 SameState-TheophyllineA] | 32.9 |
| GAAACGUAGGUGGAGCGGUGAAAUGGCGAUACCAGCGUGGAAACACGCCCUUGGCAGCGUUAGAACAUGAGGAUCACCCAUGUUU [#21 Exclusion-TheophyllineA] | 19.3 |
| UACAUGAGGAUCACCCAUGUAUGAAGGGAUACCAGCGACAGUAAGCGCCCUUGGCAGCCCGUGAAUAAAGGGUGGGUAAAAUAGU [Exclusion Theophyline A GF 3] | 26.9 |
| ACGACGCAUAGUGAUACCAGUACAACAUGAGGAUCACCCAUGUCACAUAUGUUGUAAUAGUGCCCUUGGCAGCACUAUGCGUCAG [SSTheo B #3] | 94.4 |
| CUAUAUAUAAGAAGGAGCGACAUGAGGAUCACCCAUGUCUACCACGUCGAAAGACGCUCAUGUCAGGUAGGUCGCUUAUAUAUAG [Astros-Eli-mod1] | 108 |
| CGAUGAUGAAGGGAUACCAGAAAUGGUAUUCCUUUAUUUCUUACAUGAGGAUCACCCAUGUUCCCUUGGCAGCUUUUUAUCAUCG [ETHB #6] | 49.3 |
| AGCACUGUGACGGCCGCCACUAUAUAUAGGGUGGUCAGGUUCAUAAUACAUGAGGAUCACCCAUGUAGGACCGGGUCUCAGUGCA [Omei Trp Exc B A v4] | 14.5 |
| AUGCAUAGCGGAAGGAGCGCAAUAGAAUGACAUGAGGAUCACCCAUGUGUGUGAUGUGGGUUGCAGGUAGGUCGCCGAGUGGCAU [#11 Exclusion - Arginine B] | 77.6 |
| CGAUAUAAGACGGCCGCCACUAUUAUGUAACAAAAUAAACAUGAGGAUCACCCAUGUACAUGGGAUAGGACCGGGUCCAAUAACG [#21 Same State - Tryptophan B] | 98.7 |
| GGACUAACCAGAAGGAGCGGCACGCAGAAACUGCAAAUUCCUCCACACGAGGAUCACCCGUGUCAGGUAGGUCGCUGGUUAGUCG | 33.6 |
| ACGCUGAUUGAUUACAAUCAGCGAAAAGAUACCAGUGGGUAAUCCCACCCUUGGCAGCUUAAACAUGAGGAUCACCCAUGUGGUA [TheoAS 14 #MS2Right #BothOrNeither #AlternativeMS2] | 79.9 |
| UAUACAUGGGAUACCAUGGAUCCGAGUGAUACCAGCUAUCCGAAUAGCCCUUGGCAGCACAGUACAUGAGGAUCACCCAUGUAUA [Theo A SS t5] | 27.8 |
| GUACAUGAGGAUCACCCAUGUAUAGUUGAAGGAGCGACCGGUGGGUCAGGUAGGUCGCAGCGCAUGGCGUCAACCCGUGUAUGCC [#1 Exclusion - Arginine A Attempt #27 (Inspired by Pi)] | 13.8 |
| AAUAUAUAUCACGAACUGUGGUGUAUGUUGCGAGGACCGGUACGGCCGCCACUCGACCGGUGGUACAUGAGGAUCACCCAUGUUG [XTryp A #10] | 35.6 |
| UUGGUUAUGCGAAGGAGCGGGAAAUAUAUAUAUAUAAUCCUAACAUGAGGAUCACCCAUGUCCCAGGUAGGUCGCGCAUAGUUGG [12.I] | 45.2 |
| AAGCGCACAUGAGGAUCACCCAUGUGCGGCCGAGGACCGGUACGGCCGCCACUCGGAACUAGAAAUAGGAACGGGUAGUGCGCAA [TryptophanA Sol_1] | 10.6 |
| CAAGCACCAACCGAUACCAGCUUAGUAGUAUGCUCAUUAAACAUGAGGAUCACCCAUGUGAGCCCUUGGCAGCGGAUUUCCCUGC [theeternabot_exclusion_MS2_Theo_B_12] | 14.5 |
| UACUUGCUGACGGCCGCCACUAGAACAUGAGGAUCACCCAUGUACCCGGUCCUACAUGGGAUGACUAGGACCGGGUCAGCAAGAU [(Trp1)-(Ms2)-(T)'-(M)'-(Trp2)_Design3] | 39.6 |
| AUAAAUAAUAAAUAUAAUAAAGUGGGUGAACGAGGACCGGUACGGCCGCCACUCGGACAUGAGGAUCACCCAUGUCCAUGUGAAA [AstrosExtTry#3] | 9.94 |
| CCGCACAUGAGGAUCACCCAUGUCCGGGUUCGAGGACCGGUACGGCCGCCACUCGGACAUGUGCGCCCUUCAUGCACUGUAUAAA [Macetius] | 38.9 |
